Experimental data as given in patent publication US20140329787A1, “PHYTOPHTHORA PHOSPHOLIPASE C” (Deakin University, priority 2011, published 2014).
Entries after “also recorded” stand apart in the source; their conditions may differ.

Legend:
[1] = test system: P. cinnamomi; experiment: Hyphal growth rate; assay type: cell-based, Phytophthora cinnamomi; details: data not shown
[2] = test system: Phytophthora cinnamomi; assay type: cell-based
[3] = test system: P. sojae; experiment: Hyphal growth rate; assay type: cell-based, Phytophthora sojae; details: data not shown
[4] = IP3 production from bovine brain phosphatidylinositols, ESI-MS; assay type: biochemical; details: CaCl2 or EDTA; three protein batches
Method: All mass spectra were produced using a 6210 MSDTOF mass spectrometer (Agilent Technologies, Australia) with the following conditions: drying gas, nitrogen ([…], 350° C.); nebulizer gas, nitrogen (16 psi); capillary voltage, ±4.0 kV; vaporizer temperature, 350° C.; and cone voltage, 60V, 5 μL.
To test for phospholipase C-like function of Alt-PLC, electrospray ionization mass spectrometry (ESI-MS) was utilized to identify of inositol(1,4,5)triphosphate (IP3) produced from reactions of Alt-PLC with lipids.
Three separate batches of protein (purified from independent transformations) were prepared and reacted with a mixture of phosphatidylinositols from bovine brain in the presence of CaCl2 or in the presence of EDTA. Chloroform phase-extraction was performed and the aqueous phase analysed for the presence of IP3 by ESI-MS.

[5] = Hydrolysis of PIPx, neutral-lipid TLC; assay type: biochemical; details: 0.2 mg/ml enzyme; listed as Alt-PLC1
Method: Lipid samples of 0.5 μl were applied to silica 60 TLC plates and allowed to dry prior to the addition of more sample. Neutral lipids were applied to 10×20 cm pre-absorption zone-bearing silica-60 plates (Sigma-Aldrich, USA) and resolved in a solvent mixture of hexane:diethyl ether:acetic acid (9:1:0.5). Phospholipids were resolved on 20×20 cm silica-60 plates (Merck, Australia), without a pre-absorption zone, in a solvent mixture of chloroform:methanol:acetic acid:water (90:40:12:2). Lipids were detected by spraying the dried TLC plates with a solution of 0.05% rhodamine B (Sigma) in methanol and destaining was performed by repeated spraying with 5 M KOH. Lipid spots were then visualised following UV excitation at 312 nm.
Alt-PLC and Alt-PLC2 were refolded into buffer A4 at a concentration of 0.2 mg/ml and a hydrolysis reaction was performed using PIPx (mixed phosphatidylinositols, Sigma) as the substrate. The reaction was performed as described previously and the resultant neutral lipids were extracted by diethyl ether phase extraction. The samples were analysed by neutral-lipid thin-layer chromatography, on silica 60 plates with a pre-absorption zone; the mobile phase employed was hexane: diethyl ether: acetic acid (9:1:0.5).

[6] = In-solution hydrolysis of diC8-PI(4,5)P2, products by ESI-MS, TLC and NMR; assay type: biochemical; details: with calcium, 60 min
Method: Five milligrams of lyophilised, synthetic 1,2-dioctanol-D-myo-phosphatidylinositol(4,5)bisphosphate (diC8-PI(4,5)P2: Echelon Biosciences, USA) was resuspended in 500 μl of 20 mM tris pH:8.0; to this, 100 μl of 1M CaCl2 and 400 μl of refolded Alt-PLC (0.1 mg/ml) in buffer A4 were added and the reaction allowed to proceed for 60 min. The reaction was stopped by phase separation with the addition of 3.75 ml of chloroform:methanol:12N HCl (2:4:0.1) and mixed thoroughly before the addition of 1.25 ml of chloroform. The solution was then vortexed for 30 sec before addition of 1.25 ml of ddH2O and then further vortexed for 30 seconds. The sample was then centrifuged at 1000 rpm for 10 min in a swinging bucket rotor at 4° C. The upper aqueous layer (containing inositols) and the lower chloroform layer (containing all lipids and phospholipids) were separately lyophilised in glass tubes and stored at −80° C. for further analysis. Further separation of polar and non-polar lipids, developed by the hydrolysis reaction, was performed by resuspending the lyophilised, chloroform layer in 1 mil 75% methanol and then adding 1 ml of n-hexane. […]
The unusual nature of this double hydrolysis led the Applicant to perform NMR on the MAG and acyl arg fractions as an additional confirmation of the ESI-MS results. […] NMR spectra were recorded at 400 MHz at −55° C. […]

[7] = test system: E. coli; experiment: Growth curves of E. coli expressing Alt-PLC and truncations; assay type: cell-based; details: relative to E. coli not expressing Alt-PLC
Method: An analysis of function of the Alt-PLC truncations was performed using growth curves of Alt-PLC expressing E. coli cells (FIG. 28).
Therefore, growth curves of E. coli expressing Alt-PLC and the truncations allow determination of Alt-PLC function in vivo.

Molecule	hyphal growth rate [1]	PIP2 level and distribution in hyphae [2]	hyphal growth rate [3]	IP3 production (m/z 160.6) [4]	monoacylglycerol production / phospholipase C activity level in vitro [5]	products of hydrolysis [6]	growth of expressing E. coli (function in vivo) [7]
COc1ccc2c(c1)CC[C@@H]1[C@@H]2CC[C@]2(C)[C@@H](NCCCCCCN3C(=O)C=CC3=O)CC[C@@H]12 [U-73122]	markedly reduces hyphal growth rate	PIP2 increased; also recorded: PIP2 showed an almost uniform membrane distribution, indicating uncontrolled accumulation	markedly reduces hyphal growth rate				
Alt-PLC: Phytophthora sojae alternative phospholipase C, SEQ ID NO: 5; codon optimised, his-tagged, expressed in E. coli (protein, listed as Phytophthora sojae, His tag, codon optimised, his-tagged, expressed in E. coli) MASGWRQKPRLDPWDPPSPPPLLEEAAPKPKPKTSRFSRRSTRAKSHARQQAQHVELEVEEHAEQRDRDKRRSLLASMFGERAQSRASRSSSDASALQSQTQTLVQREKAFRLVRHGSDPLLNDAFYATQVQVGNFVKMGWLTKQGHMWKSWKTRFFVLFSDGTFAYYKNKGRKKIKGCMQLNDGVVSVQHVDIRLADKAYVFQIEKGFYKLLCYCCSQFEAELWVAALRSVRRVAPPCYEMDLTATEEKAGSNAVTRHLNKIFITDKQIAKRLAEFKANTHDHSYAAIHNFIVELDDAIIDRHHLEFYQDAEIELLPGNELVRLIRRHVEDRVFIPLYAEAYASLETDKVKTRRSNLEQHLKVLKQKTQADFGISKDLSVCNWKQAISVVNMLDCVSLPTHKFEVILSAGKAIMELIAQYNGELFEVSDEMLTAIFRYVVTMSSLSDLPTLRALLKYGYQHHPASQNKANVVTAFLNAIKWVECFEAGDESYQFDSLALAGSRVSVSISTNDVGIQFTTDGNGRGAIVYNIRKQSQAALSAAIVPGLSLIAINHEPVIALEFAVKIDYSHRIEVDKSASYLGSQMPNSSWKMVDKDDHVSRSARPGSVDDLIRELVAGTEVDLVDVVSFVLFLDSFSSLNEVVDRLSAHVRNGVKSHGLIRLFIVVLLFRQSETKEADDLRDRFYSLISLNIDAKDKLVPLVEEYMSLYKEYFSLRGAGNYAVNYQAIPGMMSKVYGMESGFEPVSSGPFSAHLHRFVDAERWAEQCTLLTHAVFCKIPVRDFIPTGSKKKHSVEFTSIKRWFQHISAFVINAVLVQNTPEERAEVISFYLKLSLDAKKMMNEMQLLSDKGCREMNRLMRKTANPSMPYIGLYLQGFVGLNELPAFDKEGLVNANRLRRMGELAMEILHRQSVAYTLQHDEDVNKLLHVSLPYSSEESRYARSLELEPREADAIPLSDRGSYTLIDDDVDLENEVRESIGGDGTFGFRQWIRKQQVVHRNRSRSSVIALYEWV				IP3 was produced in the Ca^2+-activated reactions, but was not produced in the presence of EDTA	detection of monoacylglycerol production; also recorded: higher activity level in vitro than Alt-PLC2	1-monacylglycerol, a free fatty acid (FFA) and inositol(1,4,5)triphosphate	characteristic reduced growth of the bacteria
